Measurements taken from the nanobody polyreactivity screen of Harvey et al. (2022).

Experiment: yeast display, Sf9 membrane polyspecificity reagent, FACS + sequencing; frameworks hold sequencing errors
Summary of the method: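 In a synthetic yeast display library (Saccharomyces cerevisiae BJ5465), nanobody expression was induced with galactose for 36–48 hours. FACS gates were set low and high (top ~1%) using anti-HA fluorescence for expression and streptavidin fluorescence for binding of the Sf9 membrane reagent. Each polyreactivity label is drawn from the gate of origin.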
In the case of “QVQLVESGGGLVQAGGSLRLSCAASGSIFVVNAMGWYRPAPGKERELVAAINWSDGSTYYADSVKGRFTISRDTAKNTVYLQLTSLKPEDTAVDYCAAEVPYFYFEGWNYDYWGQGTQVTVSS”, the “polyreactivity (PSR sort gate)” value is reported as “high polyreactivity”.
With “QVQLVESGGGLVQAGGSLRLSCAASGSIFVVYAMGWYRQAPGKERELVASIRTGGSTNYADSVKGRFTISRDNAKNTVYLQMNSLKPEDTAVYYCAAASWNCNRHYYVARYYYWGQGTQVNVSS” the “polyreactivity (PSR sort gate)” value was “high polyreactivity”.
For “QVQLVESGGGLVQAGGSLRLSCAASGSIFVVYAMGWYRQAPGKERELVAVITDDGSTYYADSVKGRFTISRDNAKNTVYLQMNSLKPEDTAVYYCAAEGAATPDFGSWYYYWGQGTQVTVSS”, the “polyreactivity (PSR sort gate)” value was “low polyreactivity”.
In the case of “QVQLVESGGGLVQAGGSLRLSCAASGSIFVWNAMGWYIQAPRKERELVAAISYTDGSTYYADSVKGRFTISRDNAKNTVYLQMNSMNPEDTAVYYCAASTLKDIYLWFRVDYWGQCTQVTVSS”, the “polyreactivity (PSR sort gate)” value is reported as “low polyreactivity”.
For “QVQLVESGGGLVQAGGSLRLSCAASGSIFVYNAMGWYRQAPGKERELVAAISQRGGSTYYADSVKGRFTISRDNAKNTVYLQMNSLKPEDTADYYCAAGPGDSGDDYWGQGTQVTVSS”, the “polyreactivity (PSR sort gate)” value was “low polyreactivity”.
With “QVQLVESGGGLVQAGGSLRLSCAASGSIFVYNAMGWYRQATGKEREMVAVINKSGDTTYYADSVKGRFTISRDNAKNTVYLQMNSLKPEDTAVYYCNASGEVLAAVVSYDYWGQGTQVTVSS” the “polyreactivity (PSR sort gate)” value was “low polyreactivity”.
In the case of “QVQLVESGGGLVQAGGSLRLSCAASGSIFVYYAMGWYRQAPGKERELVAAINSGSITKYADSVKGRFTISRDNAKNTVYLQMNSLKPEYTAVYYCAARYDNTYRTETSYPRYYSWGQGTQVTVSS”, the “polyreactivity (PSR sort gate)” value is reported as “high polyreactivity”.
For “QVQLVESGGGLVQAGGSLRLSCAASGSIFVYYTMGWYRQAPGKVRELVATITFRGNTYYADSVKGRFTISRDNAKNTVYLQMNSLKPEDTAVSYCAATRYGHRYYYRPYEYWGQGTQVTVSS”, the “polyreactivity (PSR sort gate)” value was “high polyreactivity”.
For “QVQLVESGGGLVQAGGSLRLSCAASGSIFWGNAMGWYRQAPGKERELVADISGGDTYYADSVKGRFTISRDNAKNTVYLQMNSLKPEDTAVYYCAADVWQYFYPYGYYYWGLGTQVTVSS”, the “polyreactivity (PSR sort gate)” value was “high polyreactivity”.
With “QVQLVESGGGLVQAGGSLRLSCAASGSIFWGYAMGWYRQAPGKERELVAAIRVSGGSTYYADSVKGRFTISRDNAKNTVYLQMNSLKPEDTAVYYCARDTWGGFSSADNYWGQGTQVTVSS” the “polyreactivity (PSR sort gate)” value was “high polyreactivity”.
In the case of “QVQLVESGGGLVQAGGSLRLSCAASGSIFWIYAMGWYRQAPGKERELVATITRRGGSTYYADSVKGRFTISRDNAKNTVYLQMNSLKPEDTAVYYCATEPGYTFLTSYKYDYWGQGTQVTVSS”, the “polyreactivity (PSR sort gate)” value is reported as “low polyreactivity”.
For “QVQLVESGGGLVQAGGSLRLSCAASGSIFWLYAMGWYRQAPGKESELVAAIDSGDSTKYADSVKGRFTISRDNAKNTVYLQMNSLKPEDTAVYYCNASRRYHVRAPYDYWGQGTQVTVSS”, the “polyreactivity (PSR sort gate)” value was “low polyreactivity”.
For “QVQLVESGGGLVQAGGSLRLSCAASGSIFWPYAMGWYRPAPGKERELVATISWNGGSTYYADSVKGRFTISRDNAKNTVYLQMNSLKPEDTAVYYCAAEVYFNQYGGMDYWGQGTQVTVSS”, the “polyreactivity (PSR sort gate)” value was “low polyreactivity”.
In the case of “QVQLVESGGGLVQAGGSLRLSCAASGSIFWPYAMGWYRQAPGKERELVAAISSSTGRTYYADSVKGRFTLSRDNEKNTVYLQMNSLKPEDTAVDYCAADIGTTSYRYYYWGQGTQVTVSS”, the “polyreactivity (PSR sort gate)” value is reported as “high polyreactivity”.
For “QVQLVESGGGLVQAGGSLRLSCAASGSIFWQYAMGWYRQAPGTERELVAAISSRGGSTYYADSVKGRFTISRDNAKNTVYLQMNTLKPEDTAVYYCAAHSVVRSYAARDSGYDYWGQGTQVTVSS”, the “polyreactivity (PSR sort gate)” value was “high polyreactivity”.
In the case of “QVQLVESGGGLVQAGGSLRLSCAASGSIFWRNAMGWYRQAPGKERELVAVISSGGRTYYADSVKGRFTISRDNAKNTVYLQMNSLKPEDTAVYYCAAQYHGGISQRLYYWGQGTQVTVSS”, the “polyreactivity (PSR sort gate)” value is reported as “high polyreactivity”.
For “QVQLVESGGGLVQAGGSLRLSCAASGSIFWRNTMGWYRQAPGKEREFVAAISSNGGGTYYADSVKGRFTISRDKAKNTVYLQTNSLKPEDTAVYYFAATAGGSYKLWYYYWGQGTQVTVSS”, the “polyreactivity (PSR sort gate)” value was “high polyreactivity”.
In the case of “QVQLVESGGGLVQAGGSLRLSCAASGSIFWRYAMGWYRQAPGKERELVATITSRGGSTYYADSVKGRFTISRDNAKNTVYLQMNSLKQEDTAVYYCAAGWLPKYGYWGQGTQVTVSS”, the “polyreactivity (PSR sort gate)” value is reported as “low polyreactivity”.
In the case of “QVQLVESGGGLVQAGGSLRLSCAASGSIFWSNAMGWYRQAPGKERELVAASSSGGSTYADSVKGRFTISRDTAKNTVYLQMNSLKPEDNAVYDCNARDYSVGRNDYWGQGTQVTVSS”, the “polyreactivity (PSR sort gate)” value is reported as “low polyreactivity”.
For “QVQLVESGGGLVQAGGSLRLSCAASGSIFWSNAMGWYRQAPGKESELVATIDDDVGSTYYADSVMGRFTISRDNAKNTVYLQMNSLKPEDTAVYYCAADSVYYVIPYEYWGQGTQVTVSS”, the “polyreactivity (PSR sort gate)” value was “low polyreactivity”.
In the case of “QVQLVESGGGLVQAGGSLRLSCAASGSIFWSYAMGWYIQAPGTERELVAAITTDGGTNYADSVKGRFTISLDNAKNTVYLLMKSLKPDDTAVYYCAGDTDPNPQIDYTLTMDYWGQGTEVTVSS”, the “polyreactivity (PSR sort gate)” value is reported as “low polyreactivity”.
For “QVQLVESGGGLVQAGGSLRLSCAASGSIFWTYAMGWYRQAPGKEREFVAAITFNYGSTYYADSVKGRFTISRDTAKNTVYLQMNSVKPEDTAVYYCNADTWYYYNFWSYIEYDYWGQGTQVTVSS”, the “polyreactivity (PSR sort gate)” value was “high polyreactivity”.
In the case of “QVQLVESGGGLVQAGGSLRLSCAASGSIFWVNAMGWYRQAPGQVSELVAAINYSDGSTSYADSVKGRFTISRDNAKNTVYLQMNSLKPEDTAVYYCNAESFELMYYWGQGTQVTVSS”, the “polyreactivity (PSR sort gate)” value is reported as “low polyreactivity”.
With “QVQLVESGGGLVQAGGSLRLSCAASGSIFWVYAMGWYRQAPGKERELVAAISQSGGSTYYADSVKGRFTISRDNAKNTVYLQMNSLKPEYTAVYYCAAYVRGQNYDYWGQGTQVTVSS” the “polyreactivity (PSR sort gate)” value was “high polyreactivity”.
With “QVQLVESGGGLVQAGGSLRLSCAASGSIFWWNAMGGYRQAPGKERELVAAINWSTGRTYYADSVKGRFTISRDNAKNTVYLQMNSLKPEDTAVYYCAASFVGALGYDYWGQGTQVTVSS” the “polyreactivity (PSR sort gate)” value was “low polyreactivity”.
In the case of “QVQLVESGGGLVQAGGSLRLSCAASGSIFWWYGMGWYRQAPGKEREFVADITSGGGTYYADSVKGRFTISRDNAKNTVYLQMNSLKPEDTAVYYCAADVRAYRFDYYFDYWGQGTQVTVSS”, the “polyreactivity (PSR sort gate)” value is reported as “low polyreactivity”.
With “QVQLVESGGGLVQAGGSLRLSCAASGSIFWYAMGWYRQAPGKERELVATITSGASTTYADSVKGRFTISRDNPKNTVYLQMNSLKPEDTAVYYCAKGFTYPQTRFGYWGQGTQVTVSS” the “polyreactivity (PSR sort gate)” value was “low polyreactivity”.
With “QVQLVESGGGLVQAGGSLRLSCAASGSIFWYNAMGWYRQAAGKERELVAAIRWRGGSTYYADSVKGRFTISRDNEKNTVYLQMNSLKPEDTAVYYFAAQVYVSQLYTSYYYWGQGTQVTVSS” the “polyreactivity (PSR sort gate)” value was “high polyreactivity”.
With “QVQLVESGGGLVQAGGSLRLSCAASGSIFWYNAMGWYRQAPGKERELVASISYSGAITYYADSVKGRFTISRDNAKNTVYLQMNSLKPEDTAVYYCNAEHYLPGYDWSEYDSWGQGTQVTVSS” the “polyreactivity (PSR sort gate)” value was “low polyreactivity”.
With “QVQLVESGGGLVQAGGSLRLSCAASGSIFWYYAMGWSRQAPGKERELVAAITGSGGSTYYADSVKGRFTISRDNAKTTVYLQLNSLKPEDTAVYYCAAEAFFWYYGWYDYWGQGTQVTVSS” the “polyreactivity (PSR sort gate)” value was “high polyreactivity”.
In the case of “QVQLVESGGGLVQAGGSLRLSCAASGSIFYANAMGWYRQAPWKEREFVAAISSSGGGTSYADSVKGRFTISRDNAKNTVYLQMNSLKPEDTAVYYFAARVTYGGIPARQIYDYWGQGTQVTVSS”, the “polyreactivity (PSR sort gate)” value is reported as “low polyreactivity”.
In the case of “QVQLVESGGGLVQAGGSLRLSCAASGSIFYAYARGWYRQAPGKERELVATISSVGSTYYADSVKGRFTISRDNAKHTVYLHMNSLKPEDTAVHYCAKQRIVVYKTGYDYWGQGTQVTVSS”, the “polyreactivity (PSR sort gate)” value is reported as “low polyreactivity”.
In the case of “QVQLVESGGGLVQAGGSLRLSCAASGSIFYDNAMGWYRQAPGKERELVAAIRGRGGSTYYADSVKGRFTISRDNAKNTVYLQMNSLKPEDTAVYYCNALNYRYRKYDYWGQGTQVTVSS”, the “polyreactivity (PSR sort gate)” value is reported as “high polyreactivity”.
For “QVQLVESGGGLVQAGGSLRLSCAASGSIFYDNAMGWYRQAPGKERELVAAISFRGSSTYYADSVKGRFTISRDNAKNTVYLQMNSLKPEDTAVYYCNTDIYVQYGWGQGTQVTVSS”, the “polyreactivity (PSR sort gate)” value was “low polyreactivity”.
For “QVQLVESGGGLVQAGGSLRLSCAASGSIFYDNGMGWYRQAPGKERELVAAISRGGTTNYSDSVKGRFTISRDKAKNTVYLQMNSLKPEDTAVYYCNAETRFTYWGSWYDYWGQGTQVTVSS”, the “polyreactivity (PSR sort gate)” value was “low polyreactivity”.
In the case of “QVQLVESGGGLVQAGGSLRLSCAASGSIFYDYAMGWYRQAPGKERELVAAISGRGGSTYYADSVKGRFTISRDNAKNTVYLQMNSLKPEDTAVYYCAARYRYRFLDRYNYWGQGTQVTVSS”, the “polyreactivity (PSR sort gate)” value is reported as “high polyreactivity”.
In the case of “QVQLVESGGGLVQAGGSLRLSCAASGSIFYDYAMGWYRQAPGKERELVATISSGGSTNYADSVKGRFTISRDNAKNTVYLQMNSLKPEDTAVYYCNVDGRRYPHEFDYWGQGTQVTVSS”, the “polyreactivity (PSR sort gate)” value is reported as “low polyreactivity”.
With “QVQLVESGGGLVQAGGSLRLSCAASGSIFYENAMGWYRQAPGKEREFVATIDLIGDRTYYADSVKGRFTISRDNAKNTVYLQMNCLKPEDTAVYYCAAERVGVFFRYDYWGQGTQVTVSS” the “polyreactivity (PSR sort gate)” value was “low polyreactivity”.
In the case of “QVQLVESGGGLVQAGGSLRLSCAASGSIFYENAMGWYRQAPGKERELVAAISRSGGSTYYADSVKGRFTISRDNAKNTVSLQMNSLKPEDTAVYYCAADVYVFIGDYWGQGTQVTVSS”, the “polyreactivity (PSR sort gate)” value is reported as “low polyreactivity”.
For “QVQLVESGGGLVQAGGSLRLSCAASGSIFYFNAMGWYRQAPGKERELVADISGSGGSTYYADSVKGRFTISRDNAKNTVYLQMNSLKPEDTAVYYCAARLYLHSWWYYAYDYWGQGTQVTVSS”, the “polyreactivity (PSR sort gate)” value was “high polyreactivity”.
In the case of “QVQLVESGGGLVQAGGSLRLSCAASGSIFYFNAMGWYRQATGKERELVADISWSGGDSTYYADSVKGRFTISRDNAKNTVYLQMNSLKPEDTAVYYCAADLSYPDWSRYQWDMDYWGQGTQVTVSS”, the “polyreactivity (PSR sort gate)” value is reported as “low polyreactivity”.
